PMC4847859

Test system: CdpR (Pseudomonas aeruginosa PAO1)
Assay: EMSA

## pqsH-p (pqsH-cdpR intergenic region)
  K half: 500 nM
